The target in one test is 8-arm-PEG-P2 (20 kDa). Nature of the test: cell-based or functional assay.
The target in another test is 8-arm-PEG-P1 (40 kDa). Put plainly: cell-based or functional assay.

Chain of 8-arm-PEG-P2 (20 kDa) (peptide, as listed by the source): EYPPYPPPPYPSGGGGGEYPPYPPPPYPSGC

In turn, “C7 recombinant protein polymer (seven repeats of the CC43 WW domain) (designed binder)” returned a storage modulus G′ of the hydrogel 8P2-20k with 8-arm-PEG-P2 (20 kDa) of 15 Pa. For the same substance, the storage modulus G′ of the hydrogel 8P1-40k with 8-arm-PEG-P1 (40 kDa) came out at 3.9 Pa.

The values are drawn from patent publication US20150290329A1.
